For experiment [1], the target named is T1, HEG1 1kb (human, UniProt Q9ULI3 986-1381).
T1 construct: Inserted into pFLAG-CMV1, expressed in ACC-MESO-1; also called fragment 1kb
T1 sequence: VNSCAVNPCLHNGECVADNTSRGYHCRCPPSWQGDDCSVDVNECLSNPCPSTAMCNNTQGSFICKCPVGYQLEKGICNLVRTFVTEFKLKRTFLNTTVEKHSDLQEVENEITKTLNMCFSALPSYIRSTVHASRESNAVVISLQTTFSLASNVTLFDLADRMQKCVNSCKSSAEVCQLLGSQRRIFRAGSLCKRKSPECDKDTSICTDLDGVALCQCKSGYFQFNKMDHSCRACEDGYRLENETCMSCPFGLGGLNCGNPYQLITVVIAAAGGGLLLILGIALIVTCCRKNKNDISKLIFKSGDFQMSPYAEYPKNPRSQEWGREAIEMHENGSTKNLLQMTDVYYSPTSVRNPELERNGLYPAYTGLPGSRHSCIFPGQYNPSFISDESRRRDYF
Briefly: Western blot of cell lysate. The procedure: Gene transfer was performed with HEG1 siRNA (H9106) (SEQ ID NOs: 40, 41) and human HEG1 for the mesothelioma cell line ACC-MESO-1, and the reactivity of the SKM9-2 was examined through Western blot analysis. A full length protein (HEG1 full length) or a fragment (HEG1 3kb, HEG1 2kb, or HEG1 1kb) of the human HEG1 was used. The full length human HEG1 protein, a protein having the amino acid sequence set forth in SEQ ID NO: 35, was obtained through inserting a base sequence set forth in SEQ ID NO: 34 into pFLAG-CMV1 (Sigma-Aldrich Japan K.K.) to obtain a plasmid, transforming the plasmid, and allowing the mesothelioma cell line to express the plasmid. Fragment HEG1 3kb was obtained through inserting a fragment corresponding to a sequence from position 285, leucine, to position 1387, phenylalanine, of SEQ ID NO: 35 into pFLAG-CMV1 (Sigma-Aldrich Japan K.K.) in an in-frame manner, and allowing the mesothelioma cell line to express the resultant. […] Each cell lysate was analyzed through Western blot with the SKM9-2 antibody.
On the technique in general: Immunoblotting shows a protein as a band on a membrane.

Experiment [2] addresses T2, HEG1 full length (full length human HEG1 protein expressed in ACC-MESO-1) (human, UniProt Q9ULI3 30-1381, limits assumed).
T2 construct: Full length; expressed from pFLAG-CMV1 in ACC-MESO-1 with the endogenous HEG1 knocked down; cell lysate in Western blot; What the vector adds is not described; also called full length protein
T2 sequence: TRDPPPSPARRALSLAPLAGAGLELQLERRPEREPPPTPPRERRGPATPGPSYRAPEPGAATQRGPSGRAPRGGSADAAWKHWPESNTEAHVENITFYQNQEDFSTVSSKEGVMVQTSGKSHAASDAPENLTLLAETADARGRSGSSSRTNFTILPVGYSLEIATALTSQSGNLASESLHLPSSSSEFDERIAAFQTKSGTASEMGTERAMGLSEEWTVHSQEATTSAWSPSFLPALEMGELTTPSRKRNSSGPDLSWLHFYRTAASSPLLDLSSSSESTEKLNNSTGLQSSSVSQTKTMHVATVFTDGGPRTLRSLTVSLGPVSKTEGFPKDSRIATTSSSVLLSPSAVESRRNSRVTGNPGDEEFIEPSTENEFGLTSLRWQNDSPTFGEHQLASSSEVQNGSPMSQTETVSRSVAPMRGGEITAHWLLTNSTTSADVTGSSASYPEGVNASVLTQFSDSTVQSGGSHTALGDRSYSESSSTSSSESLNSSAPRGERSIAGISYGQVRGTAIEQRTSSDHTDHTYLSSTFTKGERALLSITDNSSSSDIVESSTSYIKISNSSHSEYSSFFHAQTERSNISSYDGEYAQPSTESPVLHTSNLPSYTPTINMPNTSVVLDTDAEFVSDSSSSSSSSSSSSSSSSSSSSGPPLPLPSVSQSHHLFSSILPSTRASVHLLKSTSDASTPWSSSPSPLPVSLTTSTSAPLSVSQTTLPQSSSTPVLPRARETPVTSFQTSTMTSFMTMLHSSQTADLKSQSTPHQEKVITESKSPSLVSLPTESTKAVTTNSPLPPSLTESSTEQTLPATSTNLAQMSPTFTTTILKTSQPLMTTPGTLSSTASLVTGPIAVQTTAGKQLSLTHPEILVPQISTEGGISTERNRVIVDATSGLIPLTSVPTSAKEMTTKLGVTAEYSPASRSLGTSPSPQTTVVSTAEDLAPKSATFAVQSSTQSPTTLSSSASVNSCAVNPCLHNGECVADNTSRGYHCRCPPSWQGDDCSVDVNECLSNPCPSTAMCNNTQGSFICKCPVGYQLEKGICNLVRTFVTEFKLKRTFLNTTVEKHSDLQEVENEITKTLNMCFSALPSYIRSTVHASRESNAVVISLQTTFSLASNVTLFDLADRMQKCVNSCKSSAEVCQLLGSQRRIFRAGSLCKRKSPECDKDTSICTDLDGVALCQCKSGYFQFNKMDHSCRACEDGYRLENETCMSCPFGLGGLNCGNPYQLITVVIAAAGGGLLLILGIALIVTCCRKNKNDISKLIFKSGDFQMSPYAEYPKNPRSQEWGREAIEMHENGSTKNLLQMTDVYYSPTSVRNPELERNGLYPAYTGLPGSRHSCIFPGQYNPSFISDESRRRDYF
The experiment can be described thus: Western blot of ACC-MESO-1 cell lysate. Here is the method: (§1) Gene transfer was performed with HEG1 siRNA (H9106) (SEQ ID NOs: 40, 41) and human HEG1 for the mesothelioma cell line ACC-MESO-1, and the reactivity of the SKM9-2 was examined through Western blot analysis. A full length protein (HEG1 full length) or a fragment (HEG1 3kb, HEG1 2kb, or HEG1 1kb) of the human HEG1 was used. The full length human HEG1 protein, a protein having the amino acid sequence set forth in SEQ ID NO: 35, was obtained through inserting a base sequence set forth in SEQ ID NO: 34 into pFLAG-CMV1 (Sigma-Aldrich Japan K.K.) to obtain a plasmid, transforming the plasmid, and allowing the mesothelioma cell line to express the plasmid. Fragment HEG1 3kb was obtained through inserting a fragment corresponding to a sequence from position 285, leucine, to position 1387, phenylalanine, of SEQ ID NO: 35 into pFLAG-CMV1 (Sigma-Aldrich Japan K.K.) in an in-frame manner, and allowing the mesothelioma cell line to express the resultant. HEG1 2kb and HEG1 1kb were obtained through allowing the mesothelioma cell line to express products similarly obtained from a fragment corresponding to a sequence from position 677, leucine, to position 1387, phenylalanine, of SEQ ID NO: 35 and a fragment corresponding to a sequence from position 992, valine, to position 1387, phenylalanine, of SEQ ID NO: 35, respectively. Each cell lysate was analyzed through Western blot with the SKM9-2 antibody.

Experiment [3] has as its target T3, HEG1 3kb (human, UniProt Q9ULI3 285-1381).
T3 construct: Inserted in frame into pFLAG-CMV1, expressed in ACC-MESO-1; what the vector adds is not described; also called fragment 3kb
T3 sequence: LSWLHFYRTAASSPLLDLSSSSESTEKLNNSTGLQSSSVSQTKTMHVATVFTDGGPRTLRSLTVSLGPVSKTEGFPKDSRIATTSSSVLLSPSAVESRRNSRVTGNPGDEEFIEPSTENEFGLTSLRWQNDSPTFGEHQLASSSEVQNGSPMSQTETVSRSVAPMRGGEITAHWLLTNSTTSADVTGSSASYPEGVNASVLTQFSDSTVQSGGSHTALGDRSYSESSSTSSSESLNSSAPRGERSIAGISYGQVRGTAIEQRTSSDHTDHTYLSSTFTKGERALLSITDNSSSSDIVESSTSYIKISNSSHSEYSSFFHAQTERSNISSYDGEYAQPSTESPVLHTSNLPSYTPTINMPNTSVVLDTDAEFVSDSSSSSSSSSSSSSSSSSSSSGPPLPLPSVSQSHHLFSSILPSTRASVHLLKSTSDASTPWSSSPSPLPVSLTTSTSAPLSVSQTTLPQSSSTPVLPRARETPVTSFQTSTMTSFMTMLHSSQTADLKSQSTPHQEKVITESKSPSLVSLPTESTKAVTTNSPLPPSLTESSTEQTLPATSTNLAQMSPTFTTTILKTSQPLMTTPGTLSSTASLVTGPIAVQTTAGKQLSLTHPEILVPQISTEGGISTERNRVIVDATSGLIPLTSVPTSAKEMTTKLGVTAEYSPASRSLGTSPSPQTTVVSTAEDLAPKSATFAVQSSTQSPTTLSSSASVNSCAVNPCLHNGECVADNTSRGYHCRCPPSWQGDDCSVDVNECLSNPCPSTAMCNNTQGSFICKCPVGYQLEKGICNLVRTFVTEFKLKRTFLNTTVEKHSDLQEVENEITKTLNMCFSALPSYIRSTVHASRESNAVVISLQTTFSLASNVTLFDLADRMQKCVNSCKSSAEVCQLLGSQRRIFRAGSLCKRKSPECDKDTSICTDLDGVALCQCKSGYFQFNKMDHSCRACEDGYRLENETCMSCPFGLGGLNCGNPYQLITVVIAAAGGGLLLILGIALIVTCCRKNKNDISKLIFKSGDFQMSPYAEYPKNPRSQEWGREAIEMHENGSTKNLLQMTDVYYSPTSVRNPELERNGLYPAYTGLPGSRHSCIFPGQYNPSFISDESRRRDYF
Briefly: Western blot of ACC-MESO-1 cell lysate. The procedure: as §1

Experiment [4] addresses T4, HEG1 2kb (human, UniProt Q9ULI3 671-1381).
T4 construct: Inserted into pFLAG-CMV1, expressed in ACC-MESO-1; also called fragment 2kb
T4 sequence: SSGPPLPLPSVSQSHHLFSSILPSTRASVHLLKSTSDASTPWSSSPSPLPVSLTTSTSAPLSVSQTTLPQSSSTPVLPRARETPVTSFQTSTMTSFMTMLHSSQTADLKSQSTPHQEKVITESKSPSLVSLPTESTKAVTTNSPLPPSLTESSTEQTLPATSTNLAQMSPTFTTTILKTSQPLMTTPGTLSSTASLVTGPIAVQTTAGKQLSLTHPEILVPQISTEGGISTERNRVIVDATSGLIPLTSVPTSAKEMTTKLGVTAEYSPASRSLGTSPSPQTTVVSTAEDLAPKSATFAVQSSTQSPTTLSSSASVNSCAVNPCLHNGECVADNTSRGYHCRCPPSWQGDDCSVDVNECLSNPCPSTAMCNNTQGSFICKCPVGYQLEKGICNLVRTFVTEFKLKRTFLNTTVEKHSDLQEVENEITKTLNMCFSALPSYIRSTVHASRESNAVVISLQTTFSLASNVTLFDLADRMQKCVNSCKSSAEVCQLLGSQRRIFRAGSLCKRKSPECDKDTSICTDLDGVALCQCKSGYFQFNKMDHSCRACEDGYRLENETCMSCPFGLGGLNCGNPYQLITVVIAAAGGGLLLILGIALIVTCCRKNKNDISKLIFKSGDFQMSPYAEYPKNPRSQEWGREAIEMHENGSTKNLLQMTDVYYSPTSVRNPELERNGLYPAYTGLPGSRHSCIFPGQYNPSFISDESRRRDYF
Briefly: Western blot of ACC-MESO-1 cell lysate. The procedure:
as §1

Data on 1 molecule can be found in patent publication US20190071517A1 (KANAGAWA PREFECTURAL HOSPITAL ORGANIZATION, published 2019).

B1: SKM9-2 antibody (antibody, mouse IgG1, kappa, V domains shown)
VH: QVQLQQPGAELVRPGASVKLSCKASGFSFTTYWITWVKQRPGQGLEWIGMIHPSDSETRLSQTFKDKATLTVDKSSNTAYMQFSSPTSEDSAVYYCVRDFDVWGAGTTVTVSS
VL: DVLMTQTPLSLPVSLGDQASISCRSSQNIVHNNGNTYLGWYLQKPGQSPKLLIFKVSNRFSGVPDRFSGSGSGTDFTLKISRVEAEDLGVYYCFQGSHIPRTFGGGTRLEIKR
notes: also called monoclonal antibody produced from the SKM9-2 hybridoma
Take B1: the binding result in experiment [1] was “no binding”; in experiment [2], “binds”; in experiment [3] it was “binds”; in experiment [4], “binds”.
